Assays:
physchem = format: physicochemical
Method: Val^8-GLP-1(7-37)OH (1 gram) lyophilized powder was dissolved in 25 mM ammonium bicarbonate, pH 8.0 (100 ml). The solution was stirred with a TEFLON stir bar at about 200 rpm at 21° C. (ambient temperature) for 16 hours. At varying times, usually within 30 minutes, the solution became hazy. On continued stirring, the haze became visibly more dense. The kinetics of the turbidity were measured by rate of formation of turbidity, i.e. absorbance at 340 nm. The precipitated protein was harvested either by filtration, e.g. Whatman 1 filter disc, or centrifugation. The supernatant was assayed for protein content either by Biuret Colorimetric Assay obtained from Pierce (Rockford, Ill.) or UV absorbance at 280 nm. By either method, the protein precipitate constituted in excess of 90% of the starting material, i.e. there was less than 10% of the protein remaining in the supernatant fraction. The collected precipitate was dried in vacuo, i.e. in a lyophilizer. The resultant precipitated (0.96 grams) material was soluble in 20 mM phosphate at pH 7.2 at less than 0.01 mg/ml. Solubility was tested by suspension of the solid in the buffer, adjustment of pH, if necessary, and filtration through a 0.2 micron filter. The protein content of the filtrate was tested by either Biuret Colorimetric Assay, UV absorbance at 280 nm, or by high pressure liquid chromatography analysis (HPLC) analysis. […]

[1] = Secondary structure by Fourier Transform Infrared Spectroscopy (FTIR); format: physicochemical; conditions: for alpha helix percent 1657 cm^-1 / beta sheet character percent 1624 + 1696 cm^-1: Samples 1-5 before and 1A-5A after base excursion pH 12.3, Table 2; for 1624 + 1696 cm^-1 total beta sheet, % / 1657 cm^-1 Alpha helix, %: purified, lyophilized batches, Table 1; for percent alpha helix content / percent beta sheet content: Table 3, pH 10.5 excursion experiment
Method: Four different batches of purified, lyophilized Val-8 GLP-1(7-37)OH were analyzed for secondary structure characteristics by Fourier Transform Infra-red Spectroscopy (FTIR) to assess alpha helix and beta sheet content of the preparations. Deconvolution was done on the Amide I region (1750-1600 cm^−1) using BioRad Win-IR Pro Software version 2.5. The results are shown below in the Table 1:
Each of Samples 1-5 was measured for secondary structure characteristics by Fourier Transform Infrared Spectroscopy (FTIR). In addition, each Sample 1-5 was placed into 20 mM phosphate solution (pH 7.2) and the pH raised to 12.3 by addition of 1N sodium hydroxide for no more than 3 minutes. All samples then dissolved and the solutions became clear. The pH of each solution was then adjusted to 7.0 by addition of 1N hydrochloric acid. Samples 1A-5A, obtained from Samples 1-5, respectively, were then obtained by lyophilization of the solutions and dried in vacuo. The secondary structural characteristics of Samples 1A-5A were assessed by FTIR. The results of the FTIR analysis of Samples 1-5 and 1A-5A are shown below in Table 2:
In another example of the effects of base excursion on secondary structure, a purified, lyophilized sample of Val^8-GLP-1(7-37)OH purified by reversed chromatography was either lyophilized (0.1 gram) or precipitated by addition of sufficient 3.0 M sodium dihydrogen phosphate (pH 3.80) to result in a 0.6 M phosphate solution. The resultant precipitate was washed with 10 mM sodium acetate at pH 5.5 and the washed precipitate was dried in vacuo. A second portion of the washed precipitate was solubilized by raising the pH of the material to 10.5 for 30 minutes at room temperature by addition of 1N sodium hydroxide. The pH of that solution was then reduced to 7.0 by addition of 1.0 N hydrochloric acid and the solution was then lyophilized. The secondary structure of the three samples was determined by FTIR.

Molecule | alpha helix percent 1657 cm^-1 [1] [%] | beta sheet character percent 1624 + 1696 cm^-1 [1] | 1624 + 1696 cm^-1 total beta sheet, % [1] [%] | 1657 cm^-1 Alpha helix, % [1] [%] | also measured
CC[C@H](C)[C@H](NC(=O)[C@H](Cc1ccccc1)NC(=O)[C@H](CCC(=O)O)NC(=O)[C@H](CCCCN)NC(=O)[C@H](C)NC(=O)[C@H](C)NC(=O)[C@H](CCC(N)=O)NC(=O)CNC(=O)[C@H](CCC(=O)O)NC(=O)[C@H](CC(C)C)NC(=O)[C@H](Cc1ccc(O)cc1)NC(=O)[C@H](CO)NC(=O)[C@H](CO)NC(=O)[C@@H](NC(=O)[C@H](CC(=O)O)NC(=O)[C@H](CO)NC(=O)[C@@H](NC(=O)[C@H](Cc1ccccc1)NC(=O)[C@@H](NC(=O)CNC(=O)[C@H](CCC(=O)O)NC(=O)[C@H](C)NC(=O)[C@@H](N)Cc1c[nH]cn1)[C@@H](C)O)[C@@H](C)O)C(C)C)C(=O)N[C@@H](C)C(=O)N[C@@H](Cc1c[nH]c2ccccc12)C(=O)N[C@@H](CC(C)C)C(=O)N[C@H](C(=O)N[C@@H](CCCCN)C(=O)NCC(=O)N[C@@H](CCCN=C(N)N)C(=O)NCC(=O)O)C(C)C [GLP-1(7-37)OH] | – | – | – | – | solubility thermodynamic (physchem; solubility): < 0.1 mg/mL; solubility thermodynamic (physchem; solubility (usually)): < 0.05 mg/mL
Sample 1: Val^8-GLP-1(7-37)OH isoelectric precipitate at pH 5.5 from 10 mM acetic acid | 24.9 | 69.8% | 31.4 | 62.7 | –
pH 10.5 excursion: washed phosphate precipitate solubilized at pH 10.5 for 30 minutes, reduced to pH 7.0, lyophilized | – | – | – | – | percent alpha helix content [1]: 71%; percent beta sheet content [1]: 13%
Sample 3: gelled Val^8-GLP-1(7-37)OH from acetic acid/25% acetonitrile incubated at 4 C for 3.1 months | 25.5 | 70.0% | 30.6 | 63.6 | –
Sample 5: precipitated fraction of Val^8-GLP-1(7-37)OH stirred in 10 mM phosphate pH 7.2 | 12.9 | 57.3% | – | – | –
2A: Sample 2 after pH 12.3 excursion, neutralized to 7.0 and lyophilized [Sample 2A] | 85.9 | none observed | – | – | –
Sample 2: Val^8-GLP-1(7-37)OH isoelectric precipitate approaching pH 5.5 from the alkaline side | 51.9 | 40.5% | 29.3 | 62.8 | –
Lyophilized mainstream: Val^8-GLP-1(7-37)OH purified by reversed chromatography and lyophilized | – | – | – | – | percent alpha helix content [1]: 71%; percent beta sheet content [1]: 16%
5A: Sample 5 after pH 12.3 excursion, neutralized to 7.0 and lyophilized [Sample 5A] | 90.6 | none observed | – | – | –
Phosphate precipitate: Val^8-GLP-1(7-37)OH precipitated in 0.6 M phosphate, washed and dried in vacuo | – | – | – | – | percent alpha helix content [1]: 57%; percent beta sheet content [1]: 35%
3A: Sample 3 after pH 12.3 excursion, neutralized to 7.0 and lyophilized [Sample 3A] | 62.2 | 23.7% | – | – | –
4A: Sample 4 after pH 12.3 excursion, neutralized to 7.0 and lyophilized [Sample 4A] | 86.0 | none observed | – | – | –
Sample 4: soluble fraction of Val^8-GLP-1(7-37)OH stirred in 10 mM phosphate pH 7.2 | 75.8 | 14.7% | 28.9 | 63.6 | –

— patent publication US8455433B2, “Process for solubilizing glucagon-like peptide 1 compounds” (Eli Lilly and Company, priority 2000, dated 2013)
